Experimental data as given in IntAct's records for PubMed 20223215.

Target: lrp8_human LRP8 (UniProt Q14114)
Chain of UniProt Q14114 (Q14114 whole entry): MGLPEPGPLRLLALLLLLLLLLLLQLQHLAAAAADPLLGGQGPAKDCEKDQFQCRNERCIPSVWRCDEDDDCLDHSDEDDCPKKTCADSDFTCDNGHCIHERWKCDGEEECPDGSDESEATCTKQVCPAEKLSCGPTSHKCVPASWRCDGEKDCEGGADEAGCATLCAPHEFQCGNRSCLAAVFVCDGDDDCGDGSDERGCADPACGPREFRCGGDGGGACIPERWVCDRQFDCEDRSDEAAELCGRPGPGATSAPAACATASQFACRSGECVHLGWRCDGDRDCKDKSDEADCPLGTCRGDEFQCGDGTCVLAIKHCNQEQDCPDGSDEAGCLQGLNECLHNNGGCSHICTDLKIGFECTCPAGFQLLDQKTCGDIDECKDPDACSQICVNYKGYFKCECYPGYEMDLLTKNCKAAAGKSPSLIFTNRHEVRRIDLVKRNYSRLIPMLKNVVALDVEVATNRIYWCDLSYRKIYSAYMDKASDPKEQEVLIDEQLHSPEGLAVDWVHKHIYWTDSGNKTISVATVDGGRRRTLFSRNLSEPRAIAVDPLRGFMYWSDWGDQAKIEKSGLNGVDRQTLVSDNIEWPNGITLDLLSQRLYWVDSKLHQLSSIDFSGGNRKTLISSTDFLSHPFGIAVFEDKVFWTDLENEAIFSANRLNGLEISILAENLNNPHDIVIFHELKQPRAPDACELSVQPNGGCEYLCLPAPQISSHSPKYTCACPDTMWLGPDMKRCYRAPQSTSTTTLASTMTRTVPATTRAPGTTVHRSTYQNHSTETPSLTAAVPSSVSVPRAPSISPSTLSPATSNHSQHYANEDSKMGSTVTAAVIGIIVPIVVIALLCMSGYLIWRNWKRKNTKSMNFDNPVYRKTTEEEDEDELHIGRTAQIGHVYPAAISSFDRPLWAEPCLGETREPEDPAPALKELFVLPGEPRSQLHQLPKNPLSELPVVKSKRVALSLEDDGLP

Row | effect of a mutation on the interaction | Substance
1 | disrupting interaction | Reelin (Mus musculus), Q60841 K2360A
2 | disrupting interaction strength | Reelin (Mus musculus), Q60841 K2467R
3 | disrupting interaction strength | Reelin (Mus musculus), Q60841 K2467A
